Experimental data: publication PMC7372559 (ACS Chemical Biology, 2020)
Substitutions are numbered along the chain they refer to. In names and notes the source's numbering stands.

B1: OphMAΔC6-V404F (crystallised with SAH) (enzyme)
chain: METSTQTKAGSLTIVGTGIESIGQMTLQALSYIEAAAKVFYCVIDPATEAFILTKNKNCVDLYQYYDNGKSRLNTYTQMSELMVREVRKGLDVVGVFYGHPGVFVNPSHRALAIAKSEGYRARMLPGVSAEDCLFADLCIDPSNPGCLTYEASDFLIRDRPVSIHSHLVLFQVGCVGIADFNFTGFDNNKFGVLVDRLEQEYGAEHPVVHYIAAMMPHQDPVTDKYTVAQLREPEIAKRVGGVSTFYIPPKARKASNLDIIRRLELLPAGQVPDKKARIYPANQWEPDVPEVEPYRPSDQAAIAQLADHAPPEQYQPLATSKAMSDVMTKLALDPKALADYKADHRAFAQSVPDLTPQERAALELGDSWAIRCAMKNMPSSLLDAARESGEEASQNGFPWVIVFGVIGVIG
modifications: backbone N-methyl at Val401 and Val403 (in the crystal structure)
B2: OphMA wild type, full-length, His8-tagged (enzyme, Omphalotus olearius, UniProt A0A2R2JFI5 1-417, looked up)
chain: METSTQTKAGSLTIVGTGIESIGQMTLQALSYIEAAAKVFYCVIDPATEAFILTKNKNCVDLYQYYDNGKSRLNTYTQMSELMVREVRKGLDVVGVFYGHPGVFVNPSHRALAIAKSEGYRARMLPGVSAEDCLFADLCIDPSNPGCLTYEASDFLIRDRPVSIHSHLVLFQVGCVGIADFNFTGFDNNKFGVLVDRLEQEYGAEHPVVHYIAAMMPHQDPVTDKYTVAQLREPEIAKRVGGVSTFYIPPKARKASNLDIIRRLELLPAGQVPDKKARIYPANQWEPDVPEVEPYRPSDQAAIAQLADHAPPEQYQPLATSKAMSDVMTKLALDPKALADYKADHRAFAQSVPDLTPQERAALELGDSWAIRCAMKNMPSSLLDAARESGEEASQNGFPWVIVVGVIGVIGSVMSTE
modifications: backbone N-methylation: most abundant species with complete methylation of the core peptide (9-fold) and an additional methylation at Val413
B3: OphMA V406R, full-length, His-tagged (enzyme)
chain: B2 chain with V406R
modifications: backbone N-methylation: dominant species unmethylated, next most abundant with two methylations
B4: OphMA V404F, full-length, His-tagged (enzyme)
chain: B2 chain with V404F
modifications: backbone N-methylation: mainly monomethylated
B5: OphMA V403P, full-length, His-tagged (enzyme)
chain: B2 chain with V403P
modifications: backbone N-methylation: dominant species unmethylated, evidence for two methylations
B6: OphMA I407R, full-length, His-tagged (enzyme)
chain: B2 chain with I407R
modifications: backbone N-methylation: dominant species carried three methylations
B7: OphMA V403T, full-length, His-tagged (enzyme)
chain: B2 chain with V403T
modifications: backbone N-methylation: 10-fold methylated species most abundant
B8: OphMA V404T, full-length, His-tagged (enzyme)
chain: B2 chain with V404T
modifications: backbone N-methylation: 10-fold methylated species most abundant
B9: OphMA I407F, full-length, His-tagged (enzyme)
chain: B2 chain with I407F
modifications: backbone N-methylation: mainly a tetramethylated species with some pentamethylated species
B10: OphMA I407E, full-length, His-tagged (enzyme)
chain: B2 chain with I407E
modifications: backbone N-methylation: peptides with 5 methylations
B11: OphMA I407T, full-length, His-tagged (enzyme)
chain: B2 chain with I407T
modifications: backbone N-methylation: 9-fold methylated species most abundant
B12: OphMA V404E, full-length, His-tagged (in vivo methylation series) (enzyme)
chain: B2 chain with V404E
modifications: backbone N-methylation: peptides with 2 methylations
B13: OphMA V406E, full-length, His-tagged (enzyme)
chain: B2 chain with V406E
modifications: backbone N-methylation: mixture of similarly abundant peptides containing 4, 5, or 6 methylations
B14: OphMA V404R, full-length, His-tagged (enzyme)
chain: B2 chain with V404R
modifications: backbone N-methylation: dominant species unmethylated, next most abundant with two methylations
B15: OphMA V403E, full-length, His-tagged (enzyme)
chain: B2 chain with V403E
modifications: backbone N-methylation: peptides with 1 methylation
B16: OphMA V403F, full-length, His-tagged (enzyme)
chain: B2 chain with V403F
modifications: backbone N-methylation: comparably abundant monomethylated, dimethylated, trimethylated and tetramethylated species
B17: OphMA V406F, full-length, His-tagged (enzyme)
chain: B2 chain with V406F
modifications: backbone N-methylation: a tetramethylated species and, to a lesser extent, a trimethylated species
B18: OphMA V406T, full-length, His-tagged (enzyme)
chain: B2 chain with V406T
modifications: backbone N-methylation: 3-fold methylated species most abundant
B19: OphMA V406P, full-length, His-tagged (in vivo methylation series) (enzyme)
chain: B2 chain with V406P
modifications: backbone N-methylation: dominant species unmethylated, evidence for two and four methylations
B20: OphMA V403R, full-length, His-tagged (enzyme)
chain: B2 chain with V403R
modifications: backbone N-methylation: dominant species unmethylated, next most abundant with two methylations
B21: OphMA I407P, full-length, His-tagged (in vivo methylation series) (enzyme)
chain: B2 chain with I407P
modifications: backbone N-methylation: a variety of species (two to four methylations), evidence of up to six

Target: the molecule itself
Assay: crystal structure; hanging drop, 16 °C; protein (30-50 mg/mL) preincubated with 3 mM SAM; 0.3-0.4 M KSCN, 1.8-2.4 M sodium malonate, 0.1 M bicine pH 8.5-9.3; SAH bound

Row | Protein | binding result
1 | B1 | binds

Target: the molecule itself
Assay: SEC; Superdex-200 Increase column, 25 mM Tris-HCl (pH 8.0), 10% (v/v) glycerol, 100 mM NaCl; retention time of mutants compared with wild type

Row | Protein | stoichiometry N
2 | B2 | 2
3 | B3 | 2
4 | B4 | 2
5 | B5 | 2
6 | B6 | 2
7 | B7 | 2
8 | B8 | 2
9 | B9 | 2
10 | B10 | 2
11 | B11 | 2
12 | B12 | 2
13 | B13 | 2
14 | B14 | 2
15 | B15 | 2
16 | B16 | 2
17 | B17 | 2
18 | B18 | 2
19 | B19 | 2
20 | B20 | 2
21 | B21 | 2
